Paper PMC12174348 (Nature Communications, 2025)

Target: human NMDAR (GluN1 and GluN2B subunits) on HEK293 cells (Homo sapiens, UniProt Q05586;Q13224)
Assay: cell-based or functional assay

B1: reference pathogenic anti-NMDAR autoantibody 502 Ab (antibody, V domains shown)
VH: QVQLQESGPGLVKPSQTLSLTCSVTGYSITSDYYWHWIRQPPGKGLEWIAYIRYDGRNDSNPSLKNRVTISRDTSKNQFSLKLSSVTAADTAVYYCAREDYASSSFDYWGQGTLVTVSS
VL: DIQMTQSPSSLSASVGDRVTITCRPSENIYSNLAWYQQKPGKAPKLLVYAATNLADGVPSRFSGSGSGTDYTLTISSLQPEDIATYYCQHFWDSPPTFGQGTKLEIK
- in vitro pathogenicity (NMDAR internalization) of 502 Ab, EC50; the sentence may also mean its binding: 0.021 µg/mL
